Molecular target: the molecule itself
Assay: cryo-EM structure; endogenous SEAC purified from yeast via Sea4-TAP (IgG Dynabeads, TEV elution in 20 mM HEPES-NaOH pH 7.4, 300 mM NaCl, 2 mM DTT), on graphene-oxide-coated grids

B1: Sea4-TAP (natural protein, UniProt P38164 1-1038, looked up)
chain: MGLIKKVTHWSYDNLIDYLSVNPTRDEVTHYKVDPENESDESIIKLHTVKDFGSITCLDYSESEIGMIGVGEKNGYLRIFNISGQNSSSPASHAPVGLNANNETSMTNASGGKAAQAENIVGSVSNLKDTQGYPVSETNYDIRVRAKKQRCINSLGINTNGLIAMGLDRNKHDSSLQIWDMNYHDDSHETINPMFSYCTNESIVSLKFLNDTSVLAASTKFLKEIDVRSPNPIYQHPTRLTYDIKLNPFNDWQFSTYGDDGTLAIWDRRKLSDQASLGDLNVASPLLTFEKLVGSGAASRKYMNSCFRWSCVRNNEFATLHRGDTIKRWRLGYYCDSNRDIAADDDNEMNIENLFVSSVHDTNTMYDRVATFDYIPRSNNGTSLICMRQSGTIYRMPISEVCSKAILNNRNSLLLSNFENTEIDEIRVNNEHEKSNLENVKTILKNLSFEDLDVSEDYFPSGHDEPNNEIEYSELSEEENEGSNDVLDSKRGFELFWKPEKLLEKDISVIMRTRASLGYGLDPMNTVEMIDSSKNLQNNAYIRNTWRWIAIAKASVDDGTMVSGDLDLGYEGVIGIWNGINGISNQDRYRQETILSDKQLNKEMEKIIKLRRKNRDRNSPIANAAGSPKYVQRRLCLIISGWDLSRSDYEDKYNIIMKNGHYEKAAAWAVFFGDIPKAVEILGSAKKERLRLIATAIAGYLAYKDLPGNNAWRQQCRKMSSELDDPYLRVIFAFIADNDWWDILYEPAISLRERLGVALRFLNDTDLTTFLDRTSSTVIENGELEGLILTGITPNGIDLLQSYVNKTSDVQSAALISIFGSPRYFRDQRVDEWIQTYRDMLKSWELFSMRARFDVLRSKLSRTKTGVLTADIKPRQIYIQCQNCKQNINTPRTSSPSSAVSTSAGNYKNGEAYRRNNADYKKFNTGSSEAQAADEKPRHKYCCPHCGSSFPRCAICLMPLGTSNLPFVINGTQSRDPMQTEDSQDGANRELVSRKLKLNEWFSFCLSCNHGMHAGHAEEWFDRHNVCPTPGCTCQCNK
notes: Sea4, S. cerevisiae, endogenous subunit of the SEAC (SEACAT, core), TAP-tagged; Captured by the TAP tag on IgG beads; the complex was released with TEV protease before SDS-PAGE and cryo-EM; Written 'Sea4-TAP'; Four copies in the SEAC; source: endogenous, yeast cells expressing Sea4-TAP; in lysate, purified on IgG-coupled Dynabeads and eluted with TEV protease
stoichiometry N: 4

From PMC9646525, “Cryo-EM structure of the SEA complex” (Nature, 2022)
